Reference: the supplement of paper PMC6757056
± gives the standard deviation of the averaged measurements.

B1: library; a variant is named by its letters at N, in order (parent)
chain: GCUGUCACCGAGAAACUGUGAAGUAUAUCUUAAACCUGGGCACUUAAAAGAUAUAUGGAGUUAGUAGUGCAACCUGCUCGGUCUGAUGAGUCCNNNNNNGGACGAAACAGC

Tests used:
[1] = variants of: B1; assay: normalized RNA/DNA level without ligand (relative to sTRSVctl = 100) (log10 (% of sTRSVctl)); HEK293T; ligand: cyclic di-GMP (c-di-GMP-II aptamer); higher = less ribozyme self-cleavage, higher mRNA level; details: reporter: mCherry (pCS4076), ligand present: no
Method in brief: (§1)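 Library plasmids carrying ribozyme switches linked to mCherry, or to eGFP in some ligand experiments, were transfected into HEK293T at 4 µg per 6-well well, with any ligand added 1 h earlier. Seventy-two hours on, total RNA was extracted with EDTA and reverse-transcribed, amplified, barcoded and sequenced. RNA level was RNA over DNA reads normalized to a spiked-in non-cleaving sequence or to the top sequences, then scaled and log-transformed. The top set was 25 sequences, the transform was ×100 and log10, and sequences needed ≥100 DNA reads.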

[2] = variants of: B1; assay: normalized RNA/DNA level with ligand (relative to sTRSVctl = 100) (log10 (% of sTRSVctl)); HEK293T; ligand: cyclic di-GMP (c-di-GMP-II aptamer); ligand concentration (+) RNA-Seq: 1 mM; higher = less ribozyme self-cleavage, higher mRNA level; details: reporter: mCherry (pCS4076), ligand present: yes
Method in brief: as §1

Variant	normalized RNA/DNA level without ligand (log10) [1]	normalized RNA/DNA level with ligand (log10) [2]
AUUGUU	1.59 ± 0.025	1.77 ± 0.12
GUUGUU	1.67 ± 0.038	1.81 ± 0.098
GUUGUG	1.66 ± 0.09	1.82 ± 0.079
AUUUCC	1.79 ± 0.019	1.9 ± 0.092
AUUUCA	1.701 ± 0.013	1.85 ± 0.12
AUUUCU	1.74 ± 0.06	1.87 ± 0.12
AUUUCG	1.66 ± 0.028	1.82 ± 0.09
CUUGUU	1.72 ± 0.07	1.85 ± 0.12
CUUGUG	1.73 ± 0.03	1.91 ± 0.13
CUUUCG	1.8 ± 0.046	1.88 ± 0.05
CUUUAU	1.58 ± 0.047	1.79 ± 0.11
CUUUAG	1.73 ± 0.095	1.84 ± 0.19
CUUUAC	1.73 ± 0.019	1.84 ± 0.1
GUUUGU	1.69 ± 0.022	1.84 ± 0.067
UUUUCU	1.78 ± 0.071	1.9 ± 0.12
UUUUCA	1.8 ± 0.025	1.91 ± 0.12
UUUUCC	1.84 ± 0.058	1.89 ± 0.16
AUUUGU	1.66 ± 0.017	1.85 ± 0.12
AUUUGC	1.76 ± 0.038	1.87 ± 0.12
AUUUGA	1.51 ± 0.052	1.75 ± 0.16

Variant	normalized RNA/DNA level without ligand (log10) [1]	normalized RNA/DNA level with ligand (log10) [2]
AUUUGG	1.56 ± 0.032	1.77 ± 0.088
CUUUUG	1.796 ± 0.016	1.92 ± 0.13
CUUUUU	1.611 ± 0.013	1.79 ± 0.11
CUUUUC	1.73 ± 0.022	1.85 ± 0.12
CUUUUA	1.42 ± 0.12	1.66 ± 0.07
AUUUAC	1.733 ± 0.0013	1.88 ± 0.1
AUUUAU	1.74 ± 0.037	1.84 ± 0.073
AUUUAG	1.63 ± 0.065	1.77 ± 0.077
UUUGUG	1.72 ± 0.042	1.91 ± 0.05
UUUUUC	1.78 ± 0.052	1.88 ± 0.14
UUUUUU	1.77 ± 0.056	1.88 ± 0.097
UUUUUG	1.77 ± 0.028	1.87 ± 0.088
UUUUUA	1.77 ± 0.038	1.92 ± 0.11
AUUUUA	1.62 ± 0.032	1.8 ± 0.13
AUUUUG	1.68 ± 0.045	1.81 ± 0.056
AUUUUU	1.76 ± 0.03	1.89 ± 0.075
AUUUUC	1.74 ± 0.024	1.85 ± 0.092
GUUUCU	1.711 ± 0.014	1.86 ± 0.097
GUUUCC	1.82 ± 0.07	1.88 ± 0.15
GUUUCG	1.71 ± 0.051	1.85 ± 0.099

Variant	normalized RNA/DNA level without ligand (log10) [1]	normalized RNA/DNA level with ligand (log10) [2]
GUUUCA	1.648 ± 0.0058	1.79 ± 0.12
UUUUAG	1.74 ± 0.022	1.89 ± 0.065
UUUUAC	1.74 ± 0.055	1.87 ± 0.14
UUUUAU	1.7 ± 0.025	1.87 ± 0.095
UUUUAA	1.725 ± 0.014	1.86 ± 0.11
UUUUGU	1.74 ± 0.035	1.87 ± 0.15
UUUUGG	1.82 ± 0.05	1.93 ± 0.13
UUUUGC	1.76 ± 0.045	1.85 ± 0.11
UUUUGA	1.74 ± 0.062	1.89 ± 0.2
CUUUGA	1.66 ± 0.019	1.79 ± 0.11
CUUUGG	1.781 ± 0.0073	1.87 ± 0.089
CUUUGC	1.795 ± 0.017	1.88 ± 0.11
CUUUGU	1.78 ± 0.029	1.87 ± 0.049
GUUUAG	1.59 ± 0.041	1.78 ± 0.091
GUUUAC	1.74 ± 0.029	1.84 ± 0.13
GUUUAA	1.54 ± 0.058	1.74 ± 0.086
GUUUUC	1.69 ± 0.025	1.86 ± 0.09
GUUUUA	1.63 ± 0.032	1.82 ± 0.098
